{"source": "patent US10441607B1", "about": "“Multifunctional linker technology containing an N4 group” (priority 2016, dated 2019)", "key": {"AR42J tumor": {"test_system": "AR42J tumor", "experiment": "PET/CT imaging of AR42J tumor-bearing mice", "type": "in vivo", "text": "PET/CT images (FIG. 6) were taken of AR42J tumor-bearing mice administered ^68Ga-DOTA-TOC (left) and ^68Ga-MMC(5-FU)-TOC (right)."}, "[1]": {"experiment": "Biodistribution in AR42J xenografts", "type": "in vivo, mice", "conditions": "mouse, all tissues other than tumor and kidneys, read-out: uptake in all locations other than tumor and kidneys"}, "AR42J xenografts": {"test_system": "AR42J xenografts", "experiment": "Biodistribution in AR42J xenografts", "type": "in vivo, mice"}, "[2]": {"test_system": "SSTR2-expressing IMR-32 cells", "experiment": "Cellular uptake / receptor-mediated binding and octreotide blocking in IMR-32 cells", "type": "cell-based", "protocol": "The cellular uptake of compound 7 was compared to another dual-labeled TOC agent, ^64Cu-DA(NIR)-TOC, which was synthesized by sequential N-terminal functionalization of resin-bound TOC with an azide-containing amino acid and DOTA-NHS, in IMR-32 neuroblastoma cells. Agents (30 nM, 1-2 μCi) were added to vials containing 4 million cells and incubated at 4° C. for 1 hr. […] After washing twice with PBS, the cells were collected and bound radioactivity was measured by a γ counter."}}, "data": [{"molecule": "C[C@@H](O)[C@@H]1NC(=O)[C@H](CCCCN)NC(=O)[C@@H](Cc2c[nH]c3ccccc23)NC(=O)[C@H](Cc2ccc(O)cc2)NC(=O)[C@@H](NC(=O)[C@@H](Cc2ccccc2)NC(=O)CN2CCN(CC(=O)O)CCN(C(=O)Cn3cc(F)c(=O)[nH]c3=O)CCN(CC(=O)O)CC2)CSSC[C@@H](C(=O)N[C@H](CO)[C@@H](C)O)NC1=O", "note": "[^68Ga-MMC(5-FU)-TOC, metal not drawn]", "values": [{"measurement": "localization in PET/CT images", "setting": "AR42J tumor", "value": "primarily in the tumor, the kidneys, and the bladder"}, {"measurement": "tissue uptake", "setting": "[1]", "value": "< 5", "unit": "%ID/g"}, {"measurement": "location of the majority of the injected dose", "setting": "AR42J xenografts", "value": "either the tumor or kidneys"}, {"measurement": "binding to IMR-32 cells", "setting": "[2]", "value": "good binding"}, {"measurement": "reduction in binding on blocking with octreotide", "setting": "[2]; 10-fold excess of octreotide", "value": 81.2, "unit": "%"}, {"measurement": "reduction in binding on blocking with octreotide", "setting": "[2]; 200-fold excess of octreotide", "value": 94.9, "unit": "%"}]}]}
